Assay results reported in article PMC4351136 (The FEBS journal, 2015).

Target: T1, domain V of human β2GPI (human, UniProt P02749 263-345)
T1 sequence (looked up): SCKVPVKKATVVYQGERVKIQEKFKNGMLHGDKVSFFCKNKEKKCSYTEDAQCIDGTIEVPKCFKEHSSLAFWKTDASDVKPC
Assay: ITC

B1: Asn36/Asp mutant of mouse A1 (domain or fragment)
chain: not shown
With B1 the Kd was 14 µM, the dH was -4.3 ± 0.2 kcal/mol and the “stoichiometry N” value was 1.04 ± 0.03.
